Data as given in the supplement of paper PMC9170038.

System: MS2 coat protein
Experiment: apparent KD of MS2 coat protein; designed switch direction (-1 OFF switch, 1 ON switch): -1; higher = weaker reporter binding
Method in brief: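 Transcription of designed RNA switches on Illumina chips was done by stalled E. coli RNA polymerase. SNAP-549-labelled MS2 coat protein was then titrated in doubling steps from 0.7 or 1.5 nM to 3 µM, with steps of 0.8–1.5 h at the lowest and 10–20 min at the highest concentration. The per-design median over clusters of curve-fitted normalised fluorescence is reported as apparent KD.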

[1] = input ligand: microRNA oligo, concentration not stated
[2] = Eterna round: R95, input ligand: FMN 200 uM
[3] = Eterna round: R95, input ligand: microRNA oligo, concentration not stated
[4] = Eterna round: R95, input ligand: none

Sequence | apparent KD of MS2 coat protein (input ligand: FMN 200 uM) [µM] | apparent KD of MS2 coat protein (input ligand: none) [µM] | apparent KD of MS2 coat protein [1] [µM] | apparent KD of MS2 coat protein [2] [µM] | apparent KD of MS2 coat protein [3] [µM] | apparent KD of MS2 coat protein [4] [µM]
UUUAGUUCAGGAUAUGAUGAAAUUAACAUGAGGAUCACCCAUGUAGAUCCUGAAUUAACAUCAGAAGGGAACAUUU [JL-ex5-4.44 Brourd mod] (Eterna round: R97, puzzle: Exclusion 5) | 0.0578 | 0.0108 |  |  |  | 
AUAUUAAUAGUAAGGAUAUGCGUGUGUGUAGUUAUGCAGAAGGUACAUGAGGAUCACCCAUGUAUUAAUGUGUG [LRO-BmodExc4-08-Oppy's Opus] (Eterna round: R97, puzzle: Brourd's mod of Exclusion 4) | 0.018 | 0.0197 |  |  |  | 
AGAUCUAGGACAGGAUAUACUGAUGGCUUCAUCGAAGAUGAAGCCAUCACAUGAGGAUCACCCAUGUAGAAGGGUCCUAGAUCA [Omei Exc(NG) 2Av8] (Eterna round: R96, puzzle: Exclusion NG 2) |  |  | 0.00955 |  |  | 
GCAAGCUUUAUCAAUAAGAACAUGAGGAUCACCCAUGUAUAAGGUAUUACUUUUGGGCUCUUUAGUGCUCGUCUUAU [JR_STOV1_Sub034] (Eterna round: R97, puzzle: Sensor, turn-off variant 1) | 0.0474 | 0.0515 |  |  |  | 
CUGAGCAGACGAAGAUCCAACAUGAGGAUCACCCAUGUCUCAAAAGCUUUUUGCUUGUCUUAUCCUUCCCUGCUCUC [Isbies] (puzzle: Sensor v3, turn-off variant 1) |  |  |  | 0.0143 | 0.207 | 0.0129
ACAAGCUUUUAGAUUCUUAACAUGAGGAUCACCCAUGUGCUCGUCUUAUUGGGCCCGGGCCCGCCGGGCCCGGGCCC (Eterna round: R97, puzzle: Sensor, turn-off variant 1) | 0.0392 | 0.0426 |  |  |  | 
CGUGGAUGAAAGGAUAUUGAGGUCUGACUGCCACAAGAAGGUUCAACAUGAGGAUCACCCAUGUCUGAUCCUAA [Xeanorti] (Eterna round: R97, puzzle: Exclusion 6) | 0.0474 | 0.0142 |  |  |  | 
AAGAAGAAACAAGCUUUUUGCUCGUCUUAUAGUGACGCAACAUGAGGAUCACCCAUGUAUAGGAUGAGGGUGGAUAG [JR_SV3TOV2_Sub046] (puzzle: Sensor v3, turn-off variant 2) |  |  |  | 0.0769 | 0.324 | 0.072
GUCUUCAUGACAUGAGGAUCACCCAUGUGUUAUUUGUUAACUAAGGAUAUAUUUUUAAUGUUGAGAUAGAAGGUAGUUUCGGUC [JR_ExcNG3_Sub090] (Eterna round: R96, puzzle: Exclusion NG 3) | 0.161 | 0.149 | 0.093 |  |  | 
GUCGUGUUAGGAUAUGGCGGCGGCGGCGAAAGUUGUUGUUGUUAGAAGGAACAUGAGGAUCACCCAUGUAUGAC [-26 -25.5 kcal, A 24%] (Eterna round: R97, puzzle: Exclusion 4) | 0.104 | 0.0353 |  |  |  | 
UAUUAGUAAGGAUAUGAGGCGUAGUACGAAAGUACUACGUCUCAGAAGGUACAUGAGGAUCACCCAUGUUCAUU [Mod of Fisker 4 - Jieux - Exclusion 4] (Eterna round: R97, puzzle: Exclusion 4) | 0.0199 | 0.0178 |  |  |  | 
UGUGUGUUUGUGAGGAUAUUGUGUGUGAAAGCGCGCGAGAAGGCACAUGAGGAUCACCCAUGUAAGGGCGCGCG [-26, -24 kcal, A 23%, 6bis-6] (Eterna round: R97, puzzle: Brourd's mod of Exclusion 4) | 0.0202 | 0.023 |  |  |  | 
ACACAAAGCUAGGAUAUCCAGGCAUCUUCGGCCGGAGAAGGAGCCACAUGAGGAUCACCCAUGUGGUGAUCCUG [eternacac ex6r4 sub5] (Eterna round: R97, puzzle: Exclusion 6) | 0.0709 | 0.0506 |  |  |  | 
UAUAACAGAGGAUAUGCGAAUAAAUAAAACUUUUUUUUUUAACAUGAGGAUCACCCAUGUAGAAGGCUGAUAUU [Ex2 #22] (Eterna round: R97, puzzle: Exclusion 2) | 0.0285 | 0.0516 |  |  |  | 
GAUUUUCAUGUAGGAUAUUCCACACAACAACUGGGAGAAGGACAUGAGGAUCACCCAUGUCCUACAACAACUUCAACAAACACA [Weak Sauce] (Eterna round: R96, puzzle: Exclusion NG 1) | 0.0158 | 0.0114 | 0.00975 |  |  | 
AGAUCUAGGACAGGAUAUAUAGAUGGCUUCAUCGAAGAUGAAGCCAUCACAUGAGGAUCACCCAUGUAGAAGGGUCCUAGAUCA [Omei Exc(NG) 2Av6] (Eterna round: R96, puzzle: Exclusion NG 2) | 0.0109 | 0.0103 | 0.00874 |  |  | 
GCUUGCGAAGUAAGGAUAUCGGUCCGAAAGGACUACGAGAAGGUACAUGAGGAUCACCCAUGUGCGAGCAGAAU [Mod of Zala 24 - Jieux - Brourd's mod of Exclusion 4] (Eterna round: R97, puzzle: Brourd's mod of Exclusion 4) | 0.0196 | 0.023 |  |  |  | 
